The results in this text go back to patent US20200299380A1 (published 2020).

In test [1] the target is T1, human ULBP-1-Fc (R&D systems) (human, UniProt Q9BZM6 26-216, limits assumed).
T1 construct: Bought; not shown: Fc of the bought fusion protein
T1 sequence (looked up): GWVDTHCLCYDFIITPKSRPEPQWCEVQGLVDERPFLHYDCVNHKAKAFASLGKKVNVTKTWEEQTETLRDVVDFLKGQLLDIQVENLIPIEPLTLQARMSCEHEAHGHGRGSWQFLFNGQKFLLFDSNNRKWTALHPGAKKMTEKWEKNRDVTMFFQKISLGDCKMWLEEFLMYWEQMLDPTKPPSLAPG
Kind of test: SPR, antibody injected over immobilized ULBP-1-Fc. On the procedure:
(§1) For cross-binding study, the human ULBP-1-Fc (R&D systems*), MICB-Fc (*), ULBP-2-Fc (*) and ULBP-3-Fc (*) recombinant proteins were covalently immobilized respectively on the flow cell one to four of a CM5 sensorchip. Anti-MICA antibodies (at a constant concentration of 10 μg/ml) were injected for 2 minutes at a flow rate of 10 μl/min onto the four flow cells in parallel. After each cycle, Sensorchip was regenerated by a five second injection of appropriate regeneration buffer.

Test [2] deals with T2, human ULBP-2-Fc (R&D systems) (human, UniProt Q9BZM5 26-217, limits assumed).
T2 construct: Bought; not shown: Fc of the bought fusion protein
T2 sequence (looked up): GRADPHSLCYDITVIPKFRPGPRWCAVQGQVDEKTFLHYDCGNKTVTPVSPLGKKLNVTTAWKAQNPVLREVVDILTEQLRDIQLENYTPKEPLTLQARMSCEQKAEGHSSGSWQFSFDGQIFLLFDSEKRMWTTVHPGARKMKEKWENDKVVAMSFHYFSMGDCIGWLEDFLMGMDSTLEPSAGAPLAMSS
In words: SPR, antibody injected over immobilized ULBP-2-Fc. On the procedure: as §1
On the technique in general: In SPR one partner is held on a chip, and binding of the other changes the refractive index at the surface.

In test [3] the target is T3, human ULBP-3-Fc (R&D systems) (human, UniProt Q9BZM4 30-217, limits assumed).
T3 construct: Bought; not shown: Fc of the bought fusion protein
T3 sequence (looked up): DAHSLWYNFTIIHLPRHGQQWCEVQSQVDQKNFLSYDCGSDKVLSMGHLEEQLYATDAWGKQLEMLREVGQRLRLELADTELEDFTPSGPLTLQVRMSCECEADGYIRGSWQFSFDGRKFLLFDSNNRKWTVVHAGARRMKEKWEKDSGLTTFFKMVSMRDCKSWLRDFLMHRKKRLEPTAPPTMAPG
Kind of test: SPR, antibody injected over immobilized ULBP-3-Fc. The protocol:
as §1

The target of a further test is T4, MICA*001-BirA (human, UniProt Q29983 24-297).
T4 construct: also called MICA-BirA; MICA*01-BirA; not shown: BirA tag
T4 sequence: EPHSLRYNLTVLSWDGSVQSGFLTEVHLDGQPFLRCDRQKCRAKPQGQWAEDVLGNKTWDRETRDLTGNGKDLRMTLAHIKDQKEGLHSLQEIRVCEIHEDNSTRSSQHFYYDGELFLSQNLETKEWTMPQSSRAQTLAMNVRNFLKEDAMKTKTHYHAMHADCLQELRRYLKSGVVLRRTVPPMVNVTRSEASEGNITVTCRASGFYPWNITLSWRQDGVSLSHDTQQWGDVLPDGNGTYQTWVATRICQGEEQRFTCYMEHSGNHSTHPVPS
Kind of test: SPR single cycle kinetics, monovalent mean KD at pH 7.4, antibody captured on Protein-G chip, MICA-BirA injected. On the procedure:
For monovalent affinity measurement, chimeric anti-MICA antibodies were captured onto a Protein-G chip.
Affinities were determined using single cycle kinetics (SCK). SCK cycles were as follows: Successive 120s injections at 30 μl/min of 5 serial dilutions (0.01 to 100 nM) of MICA-His or MICA-BirA in ascending order (or of buffer for the blank injections to be subtracted during the analysis). After the last concentration is injected, complex is left to dissociate for 600s before regeneration by a 10s injection of appropriate regeneration buffer at 40 μl/min. After the regeneration, chip is left to stabilise for 60s in running buffer. Curves are fitted using Biacore T100 Evaluation software.

The target in test [4] is T5, MICA*004 expressed at the cell surface (human, UniProt Q29983 24-297).
T5 construct: also called C1R-MICA*004; C1R-MICA*04
T5 chain: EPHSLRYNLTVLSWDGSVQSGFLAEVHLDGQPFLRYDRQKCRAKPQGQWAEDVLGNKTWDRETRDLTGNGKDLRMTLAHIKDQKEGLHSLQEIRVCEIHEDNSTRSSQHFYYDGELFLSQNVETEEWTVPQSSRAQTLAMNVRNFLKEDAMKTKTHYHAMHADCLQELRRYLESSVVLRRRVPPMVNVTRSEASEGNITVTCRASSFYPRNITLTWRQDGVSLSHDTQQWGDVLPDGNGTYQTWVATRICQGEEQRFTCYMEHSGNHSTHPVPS
Kind of test: flow cytometry on C1R transfectant cells, 4-parameter logistic fit. The protocol:
The binding of antibodies obtained from the first, second and third immunization series (including CHG1-M-MIA-19E9, CHG1-M-MIA-9C10, CHG1-M-MIA-6E4, CHG1-M-MIA-20C6, CHG1-M-MIA-16A8, CHG1-M-MIA-12A10, CHG1-M-MIA-10A7, CHG1-M-MIA-18E8, CHG1-M-MIA-10F3, CHG1-M-MIA-15F9 and CHG1-M-MIA-14B4) were tested for binding to MICA-expressing CR1 transfectant cells C1R-MICA*001, C1R-MICA*004, C1R-MICA*007 and C1R-MICA*008 (Pr. A. Steinle, Eberhard-Karls University Tuebingen, Germany) described in Salih et al. (2003) Blood 102(4): […]. Binding was analyzed by flow cytometry.
Cells were harvested and stained in PBS 1×/BSA 0.2%/EDTA 2 mM buffer during 30 minutes at 4° C. using a dose-range of the anti-MICA mAbs. After two washes in staining buffer, cells were stained for 30 min at 4° C. with mouse anti-human IgG1-PE monoclonal antibodies (1/11). After two washes, stainings were acquired on a BD FACS Canto II and analyzed using the FlowJo software.
Antibodies CHG1-M-MIA-19E9, CHG1-M-MIA-9C10, CHG1-M-MIA-6E4, CHG1-M-MIA-20C6, CHG1-M-MIA-12A10, CHG1-M-MIA-10A7, CHG1-M-MIA-18E8, CHG1-M-MIA-10F3, and CHG1-M-MIA-15F9 bound to each of the C1R-MICA*001, C1R-MICA*004, C1R-MICA*007 and C1R-MICA*008 cells (see FIG. 1A for antibodies CHG1-M-MIA-19E9, CHG1-M-MIA-9C10, CHG1-M-MIA-6E4, CHG1-M-MIA-20C6, CHG1-M-MIA-12A10, CHG1-M-MIA-10F3, and FIG. 1B for antibodies, CHG1-M-MIA-18E8, CHG1-M-MIA-15F9, CHG1-M-MIA-10A7). […] EC50 values are shown in Table C in μg/ml (calculated using a 4-parameter logistic fit).
On the technique in general: A flow cytometer gives signals particle by particle.

B1: CHG1-M-MIA-6E4 (antibody, V domains shown)
VH: EVQLVESGGALVKPGGSLKLSCAASGFTFSYYAMSWVRQTPEKRLEWVATISRGGNYIYYTDSVKGRFTISRDNAKNTLYLQMTSLRSEDTAMFYCASISDYDGAWLAYWGQGTTLTVSS
VL: DVLMTQTPLSLPVSLGDQASISCRSSQSIIHTNGNTYLEWYLQKPGQSPKLLIYKISNRFSGVPDRFSGSGSGTDFTLKISRVEAEDLGVYYCFQGSHVPWTFGGGTKLEIKR
notes: also called chimeric anti-MICA 6E4
Usually Kd stands for the free concentration of one partner at which half of the binding sites on the other are occupied at equilibrium, for simple one-to-one binding. One may read the EC50 as the concentration that produces a half-maximal response. As to B1, the binding result in test [1], in test [2] and in test [3] was “no binding (tested: 10 µg/ml)” throughout. The molecule also had an equilibrium dissociation constant (Kd) in the test with MICA*001-BirA of 8.9 nM. For the same molecule, in test [4], the EC50 turned out to be 2.67 µg/mL.

B2: CHG1-M-MIA-16A8 (antibody, V domains shown)
VH: EVQLVESGGGLVKPGGSLKLSCAASGFTFSRYAMSWVRQTPEKRLEWVATIFSGGSYTYYPDSVKGRFTISRDNANNTLYLQMSSLKAEDTAMYFCARPNWERTFDYWGQGTTLTVSS
VL: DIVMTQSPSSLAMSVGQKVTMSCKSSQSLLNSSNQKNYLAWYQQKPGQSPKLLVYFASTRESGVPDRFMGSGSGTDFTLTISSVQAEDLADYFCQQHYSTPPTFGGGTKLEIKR
notes: also called CHG1-M-MIA2-16A8; chimeric anti-MICA 16A8
On to B2, for which the binding result in test [1], in test [2] and in test [3] was “no binding (tested: 10 µg/ml)” each time. In the test with MICA*001-BirA, this molecule showed a Kd of 11.5 nM. The molecule also showed an EC50 in test [4] of 0.44 µg/mL.

B3: CHG1-M-MIA-20C6 (antibody, V domains shown)
VH: QITLKESGPGILKPSQTLSLTCSFSGFSLSTSGMGVGWIRQPSGKGLEWLAHIWWDDDKYYNPSLKSQLTISKDTSRNQVFLRITSVDTADTATYYCARRTQGYFDYWGQGTTLTVSS
VL: DIVMTQSPATLSVTPGDRVSLSCRASQSISDYLHWYQQKSHESPRLLIKYASQSISGIPSRFSGSGSGSDFTLSINSVEPEDVGVYYCQNGHSFPWTFGGGTKLEIKR
notes: also called chimeric anti-MICA 20C6
As for B3, the binding result in test [1], in test [2] and in test [3] was “no binding (tested: 10 µg/ml)” each time. For the same molecule, the Kd in the test with MICA*001-BirA amounted to 40 nM. For the same molecule, the EC50 in test [4] worked out at 0.05 µg/mL.
